In patent US20040259770A1, “Method for determining leukocyte activation” (Rush University Medical Center, priority 2003, published 2004):
Where two headings read alike, the source gives them in different places.

Legend:
[1] = molecular target: lactoferrin receptors on eosinophils; experiment: Binding of 125I-labeled lactoferrin by eosinophils, Scatchard analysis; parameters: species or system human; details: three experiments, 2 hours at room temperature
Method: Lactoferrin (100 micrograms) was radioiodinated using IODO-GEN iodination reagent (Pierce; Rockford, Ill.) according to the procedure supplied by the manufacturer. The lactoferrin was incubated with 400 micro Curies Na^125I (PerkinElmer Life Sciences; Boston, Mass.) for 3 min, and the ^125I-labeled lactoferrin was separated from free Na^125I by chromatography through a 5-ml D-Salt dextran desalting column (Pierce) using PBS as the elution buffer. Protein concentration of the ^125I-labeled lactoferrin was measured by the BCA assay (Pierce). Specific activity of the ^125I-labeled lactoferrin was 34,800 cpm/pmole. […] Binding of ^125I-labeled lactoferrin by eosinophils was determined using a modification of previously described protocols for eosinophils. Motegi et al. J. Immunol. 161:4340 (1998); Lopez et al., J. Biol. Chem. 266:24741 (1991). Eosinophils (2×10^6) were incubated with the indicated concentrations of ^125I-labeled lactoferrin alone and in the presence of excess unlabeled lactoferrin in RPMI 1640 containing 20 mM HEPES, 0.5% BSA, and 0.1% sodium azide (Lopez et al., J. Biol. Chem. 266:24741 (1991)) in siliconized glass tubes for 2 hr at room temperature on a circular oscillating platform. In some experiments as indicated, binding was measured in the presence of excess unlabeled transferrin. Total reaction volume was 0.15 ml. Reactions were stopped by centrifugation (1300 g for 4 min) of the reaction mixture through 200 microliters FCS in a 1.5 ml microcentrifuge tube. The supernatant was removed by careful aspiration, and after quick-freezing on dry ice the tip of the tube containing the cell pellet was excised and the radioactivity was measured by gamma counting (Beckman Coulter Gamma 5500B). Specific binding was determined as the difference between total binding and binding in the presence of the excess unlabeled lactoferrin. Binding constants were determined by Scatchard analysis (Scatchard, G., Ann. N.Y. Acad. Sci. 51:660 (1949)).

eosinophils = experiment: Eosinophil superoxide production (cytochrome c reduction) in protein-coated tissue culture wells; type: cell-based, human; details: 1 to 100 micrograms per milliliter of the protein, 2 hours at 37° C
Method: Neutrophils were isolated from venous blood of healthy adult volunteers by density gradient centrifugation through lymphocyte separation medium (BioWhittaker; Walkersville, Md.) as described previously (Haskell M. D., et al., Blood 86:4627-4637 (1995)) with one modification. Isotonicity was restored following the brief hypotonic lysis steps by the addition of 2× concentrated Hank's Balanced Salt Solution (HBSS) (Gibco; Grand Island, N.Y.) (without Ca^2+ and Mg^2+) containing 5 mM HEPES, pH 7.4. The cells were suspended in HEPES (10 mM)-buffered HBSS (with Ca^2+ and Mg^2+), pH 7.4, containing 1 milligram per milliliter of human serum albumin (HSA) (Sigma Chemical Co.) (HEPES-HBSS-HSA buffer). Neutrophil purity was routinely greater than 95 percent, with eosinophils representing the remainder of the cells. Eosinophils were isolated from the neutrophil preparations by negative selection (Hansel T. T., et al., J. Immunol. Meth. 145:105-10 (1991)) using anti-CD16 immunomagnetic beads as described by the manufacturer (Miltenyi Biotec, Inc., Auburn, Calif.). The eosinophils were suspended in HEPES-HBSS-HSA buffer. Eosinophil purity was routinely greater than 95 percent as determined by counting Wright-stained cytospin preparations. In some assays, an aliquot of the neutrophil preparation was held on ice for later use.
Superoxide production was measured essentially as described elsewhere (Motegi, Y., and H. Kita, J. Immunol. 161:4340 (1998)). Briefly, wells in a 96-well (flat bottom) tissue culture plate (Corning, Inc.; Corning, N.Y.) were coated with human milk lactoferrin (Sigma Chemical Co.) or human secretory IgA (ICN Biomedical; Aurora, Ohio) by incubation with 50 microliters of the indicated concentrations of the proteins in phosphate buffered saline (PBS) overnight at 4° C. Non-specific protein binding sites were blocked by subsequent incubation with 100 microliters of 25 milligrams per milliliter of HSA in PBS for 2 hours at 37° C., and the tissue culture wells were washed twice with PBS before use. Aliquots (5×10^4 cells) of eosinophils or neutrophils were added to the wells and were incubated in HEPES-HBSS—HSA buffer containing 50 micromolar cytochrome c (Sigma Chemical Co.) for 120 minutes at 37° C. in a Ceres UV900HDi microplate reader (Bio-Tek Instruments, Inc., Winooski, Vt.). Total incubation volume was 0.2 milliliters. Absorbance at 550 nanometers was recorded at 15-minute intervals, and superoxide production was calculated as described previously (Motegi, Y., and H. Kita, J. Immunol. 161:4340 (1998)). Results are expressed as nanomoles superoxide per 10^5 cells after subtraction of spontaneous production, which was measured in tissue culture wells coated only with HSA. GM-CSF (R & D Systems; Minneapolis, Minn.), porcine heparin (Sigma Chemical Co.), or chondroitin sulfate C (Sigma Chemical Co.) was added to the incubation mixtures in some assays as indicated.

Kd ([1]; mean+/−SE, listed as 125I-lactoferrin, read-out: KD, first class of receptors) [nM] | Kd ([1]; mean+/−SE, read-out: KD, first class of receptors) [nM] | Kd ([1]; read-out: KD, second class of receptors) [nM] | Molecule | stimulation of eosinophil superoxide production (in words) (eosinophils)
~47 | 47 | ~260 | ^125I-labeled lactoferrin: lactoferrin radioiodinated with IODO-GEN reagent, 34,800 cpm/pmole (protein, UniProt P02788 20-710, looked up, 125I label, lactoferrin radioiodinated with IODO-GEN reagent, 34,800 cpm/pmole) Lactotransferrin: GRRRSVQWCAVSQPEATKCFQWQRNMRKVRGPPVSCIKRDSPIQCIQAIAENRADAVTLDGGFIYEAGLAPYKLRPVAAEVYGTERQPRTHYYAVAVVKKGGSFQLNELQGLKSCHTGLRRTAGWNVPIGTLRPFLNWTGPPEPIEAAVARFFSASCVPGADKGQFPNLCRLCAGTGENKCAFSSQEPYFSYSGAFKCLRDGAGDVAFIRESTVFEDLSDEAERDEYELLCPDNTRKPVDKFKDCHLARVPSHAVVARSVNGKEDAIWNLLRQAQEKFGKDKSPKFQLFGSPSGQKDLLFKDSAIGFSRVPPRIDSGLYLGSGYFTAIQNLRKSEEEVAARRARVVWCAVGEQELRKCNQWSGLSEGSVTCSSASTTEDCIALVLKGEADAMSLDGGYVYTAGKCGLVPVLAENYKSQQSSDPDPNCVDRPVEGYLAVAVVRRSDTSLTWNSVKGKKSCHTAVDRTAGWNIPMGLLFNQTGSCKFDEYFSQSCAPGSDPRSNLCALCIGDEQGENKCVPNSNERYYGYTGAFRCLAENAGDVAFVKDVTVLQNTDGNNNEAWAKDLKLADFALLCLDGKRKPVTEARSCHLAMAPNHAVVSRMDKVERLKQVLLHQQAKFGRNGSDCPDKFCLFQSETKNLLFNDNTECLARLHGKTTYEKYLGPQYVAGITNLKKCSTSPLLEACEFLRK | retained full ability to stimulate eosinophil superoxide production
– | – | – | immobilized deglycosylated lactoferrin: lactoferrin incubated with peptide N-glycosidase F for 72 hours at 37° C (protein, UniProt P02788 20-710, looked up, deglycosylated with PNGase F, lactoferrin incubated with peptide N-glycosidase F for 72 hours at 37° C) Lactotransferrin: GRRRSVQWCAVSQPEATKCFQWQRNMRKVRGPPVSCIKRDSPIQCIQAIAENRADAVTLDGGFIYEAGLAPYKLRPVAAEVYGTERQPRTHYYAVAVVKKGGSFQLNELQGLKSCHTGLRRTAGWNVPIGTLRPFLNWTGPPEPIEAAVARFFSASCVPGADKGQFPNLCRLCAGTGENKCAFSSQEPYFSYSGAFKCLRDGAGDVAFIRESTVFEDLSDEAERDEYELLCPDNTRKPVDKFKDCHLARVPSHAVVARSVNGKEDAIWNLLRQAQEKFGKDKSPKFQLFGSPSGQKDLLFKDSAIGFSRVPPRIDSGLYLGSGYFTAIQNLRKSEEEVAARRARVVWCAVGEQELRKCNQWSGLSEGSVTCSSASTTEDCIALVLKGEADAMSLDGGYVYTAGKCGLVPVLAENYKSQQSSDPDPNCVDRPVEGYLAVAVVRRSDTSLTWNSVKGKKSCHTAVDRTAGWNIPMGLLFNQTGSCKFDEYFSQSCAPGSDPRSNLCALCIGDEQGENKCVPNSNERYYGYTGAFRCLAENAGDVAFVKDVTVLQNTDGNNNEAWAKDLKLADFALLCLDGKRKPVTEARSCHLAMAPNHAVVSRMDKVERLKQVLLHQQAKFGRNGSDCPDKFCLFQSETKNLLFNDNTECLARLHGKTTYEKYLGPQYVAGITNLKKCSTSPLLEACEFLRK | stimulated superoxide production to the same extent and in the same concentration-dependent manner as immobilized mock-deglycosylated lactoferrin
– | – | – | mock-deglycosylated lactoferrin: lactoferrin given the same treatment as deglycosylated lactoferrin but in the absence of PNGase F (protein, UniProt P02788 20-710, looked up, mock-deglycosylated) Lactotransferrin: GRRRSVQWCAVSQPEATKCFQWQRNMRKVRGPPVSCIKRDSPIQCIQAIAENRADAVTLDGGFIYEAGLAPYKLRPVAAEVYGTERQPRTHYYAVAVVKKGGSFQLNELQGLKSCHTGLRRTAGWNVPIGTLRPFLNWTGPPEPIEAAVARFFSASCVPGADKGQFPNLCRLCAGTGENKCAFSSQEPYFSYSGAFKCLRDGAGDVAFIRESTVFEDLSDEAERDEYELLCPDNTRKPVDKFKDCHLARVPSHAVVARSVNGKEDAIWNLLRQAQEKFGKDKSPKFQLFGSPSGQKDLLFKDSAIGFSRVPPRIDSGLYLGSGYFTAIQNLRKSEEEVAARRARVVWCAVGEQELRKCNQWSGLSEGSVTCSSASTTEDCIALVLKGEADAMSLDGGYVYTAGKCGLVPVLAENYKSQQSSDPDPNCVDRPVEGYLAVAVVRRSDTSLTWNSVKGKKSCHTAVDRTAGWNIPMGLLFNQTGSCKFDEYFSQSCAPGSDPRSNLCALCIGDEQGENKCVPNSNERYYGYTGAFRCLAENAGDVAFVKDVTVLQNTDGNNNEAWAKDLKLADFALLCLDGKRKPVTEARSCHLAMAPNHAVVSRMDKVERLKQVLLHQQAKFGRNGSDCPDKFCLFQSETKNLLFNDNTECLARLHGKTTYEKYLGPQYVAGITNLKKCSTSPLLEACEFLRK | did not differ from that of control lactoferrin
– | – | – | soluble lactoferrin: human milk lactoferrin added in solution to HSA-coated wells (protein, UniProt P02788 20-710, looked up) Lactotransferrin: GRRRSVQWCAVSQPEATKCFQWQRNMRKVRGPPVSCIKRDSPIQCIQAIAENRADAVTLDGGFIYEAGLAPYKLRPVAAEVYGTERQPRTHYYAVAVVKKGGSFQLNELQGLKSCHTGLRRTAGWNVPIGTLRPFLNWTGPPEPIEAAVARFFSASCVPGADKGQFPNLCRLCAGTGENKCAFSSQEPYFSYSGAFKCLRDGAGDVAFIRESTVFEDLSDEAERDEYELLCPDNTRKPVDKFKDCHLARVPSHAVVARSVNGKEDAIWNLLRQAQEKFGKDKSPKFQLFGSPSGQKDLLFKDSAIGFSRVPPRIDSGLYLGSGYFTAIQNLRKSEEEVAARRARVVWCAVGEQELRKCNQWSGLSEGSVTCSSASTTEDCIALVLKGEADAMSLDGGYVYTAGKCGLVPVLAENYKSQQSSDPDPNCVDRPVEGYLAVAVVRRSDTSLTWNSVKGKKSCHTAVDRTAGWNIPMGLLFNQTGSCKFDEYFSQSCAPGSDPRSNLCALCIGDEQGENKCVPNSNERYYGYTGAFRCLAENAGDVAFVKDVTVLQNTDGNNNEAWAKDLKLADFALLCLDGKRKPVTEARSCHLAMAPNHAVVSRMDKVERLKQVLLHQQAKFGRNGSDCPDKFCLFQSETKNLLFNDNTECLARLHGKTTYEKYLGPQYVAGITNLKKCSTSPLLEACEFLRK | stimulated minimal superoxide production
